We go through 2 substances from publication PMC3802530.

For experiment [1], the target named is K48-linked di-ubiquitin (K48-Ub2) (Homo sapiens) (UniProt P0CG47). The settings on record: cited from earlier work.
For experiment [2], the target named is K63-linked di-ubiquitin (K63-Ub2) (Homo sapiens) (UniProt P0CG47). The settings on record: cited from earlier work.
The next experiment concerns the target monoUb (Homo sapiens) (UniProt P0CG47). The settings on record: cited from earlier work.
Experiment [3] deals with K11-linked di-ubiquitin (UniProt P0CG48). As to the kind of experiment: 15N T1 relaxation.
The target is the same in experiment [4]. As to the kind of experiment: NMR titration.

Sequence of hHR23a UBA2 UBA2 (P54725 315-361): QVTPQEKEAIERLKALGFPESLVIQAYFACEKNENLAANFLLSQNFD
Sequence of Ub-associated domain (UBA) of Ubiquilin-1 (Q9UMX0 546-586): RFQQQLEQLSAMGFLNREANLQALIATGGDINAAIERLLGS

The Kd is the equilibrium constant for the complex coming apart. For hHR23a UBA2 UBA2 (from UniProt P54725), the figures for the Kd (in experiment [1]; in experiment [2]; in the experiment with monoUb (Homo sapiens)) were 18 µM, > 200 µM and 400 µM, respectively.

In turn, “Ub-associated domain (UBA) of Ubiquilin-1 (from UniProt Q9UMX0 546-586) (domain or fragment)” had a stoichiometry N (UBA molecules per K11-Ub2) with K11-linked di-ubiquitin [3] of 2. In the experiment with K11-linked di-ubiquitin [4], the Kd, site on the distal Ub (two independent sites) amounted to 2.9 µM and the stoichiometry N (UQ1-UBA:K11-Ub2) came out at 2.
